B1: 1035423 (antibody, V domains shown)
VH: EVKLEESGGGLVQPGGSMKLSCTASGFTFSDAWMDWVRQSPEKGLEWVAEIRNKANNHATYYAESVKGRFTISRDDSKSSVYLQMNSLRAEDTGIYYCILFITYAMDYWGQGTSVTVSS
VL: DIVLTQSQKFMSTSVGDRVSITCKASQNVRTAVAWYQQKPGQSPKALIYLASNRHTGVPDRFTGSGSGTDFTLTISNVQSEDLADYFCLQHWNYPLTFGSGTKLELK
B2: 1035752 (antibody, V domains shown)
VH: QVQLQQPGAELVRPGASVKMSCKASGYTFTSHSIHWVKQTPGQGLEWIGAVYPGNGDTSYYQKFKGKATLTADKSSSTAYMHLSSLTSEDSAVYYCARDGYSDYYAMDCWGQGTSVTVSS
VL: DIVMTQSQKFMSTSVGDRVSVTCKASQNVGTNVAWYQQKPGQSPKALIYSASYRYSGVPDRFTGSGSGTDFTLTINNVQSEDLAEYFCQQYNRYPWTFGGGTKLEIK
B3: 1035716 (antibody, V domains shown)
VH: EVLLQQSGPELVKPGASVKIPCKASGYTFTDYNMDWVKQSHGKSLEWIGDINPNNGGTIYNQKFKGKATLTVDKSSSTAYMELRSLTSEDTAVYYCAREGYGNYFDYWGQGTTLTVSS
VL: DILLTQSPAILSVSPGERVSFSCRASQSIGTSIHWYQQRTNGSPRLLIKYASESISGIPSRFSGSGSGTDYTLSINSVESEDIADYYCQQSYSWPTTFGAGTKLELK
B4: 1035433 (antibody, V domains shown)
VH: QVQLQQSGPQLVRPGASVKISCKASGYSFTIYWMHWVQQRPGQGLEWIGMIDPSDSETRLNQKFKDKATLTVDKSSSTAYMQLSSPTSEDSAVYYCARRGDYNFDYWGQGTTLTVSS
VL: DIVMTQAAPSVPATPGESVSISCRSSKSLLHSNGNTYLYWFLQRPGQSPQLLIFRMSNLASGVPDRFSGSGSGTAFTLRISRVEAEDVGVYYCMQHLEYPYTFGGGTKLEIK
B5: 1035211 (antibody, V domains shown)
VH: QVQLQQSGAELARPGASVKMSCKASGYTFTNYTMHWVKQRPGQGLEWIGYINPSSGYTNYNQKFKDKATLTADKSSSTAYMQLSSLTSEDSAVYYCARRNPLYAMDYWGQGTSVTVSS
VL: DIKMTQSPSSMYASLGERVTITCKASQDINSYLNWFQQKPGKSPKTLIYRANRLVDGVPSRFSGSGSGQDYSLTISSLEFEDMGIYYCLQYDEFPYTFGGGTKLEIK
B6: 1035414 (antibody, V domains shown)
VH: QVQLKQSGAELVRPGASVKLSCKTSGYIFTSYWIHWVKQRSGQGLEWIARIYPGTGNTYYNEKFKGKATLTADKSSTTAYMQLSSLKSEDSAVYFCARGEDNLYYYAMDYWGQGTSVTVSS
VL: NIVLTQSPASLAVSLGQRATISCRASESVDSYGTSFMHWYQQKPGQPPKLLIYLASNLESGVPASFSGSGSRTDFTLTIDPVEADDAATYYCQQNNEDPWTFGGGTKLEIK
B7: 1035755 (antibody, V domains shown)
VH: EVQLQQSGAELVRPGALVKLSCKASGFNIKDYYMHWVKQRPEQGLEWIGWIDPENGNSIYDPKFQGKASITADTSSNTAYLQLSSLTSEDTAVYYCATPSATSYFDYWGQGTTLTVSS
VL: QIVLTQSPAIMSASPGEKVTISCSASSSVSYMYWYQQKPGSSPKPWIYRTSNLASGVPARFSGSGSGTSYSLTISSMEAEDAATYYCQQYHSYPYMYTFGGGTKLEIK

The target of one assay is T1, recombinant SARS-CoV-2 spike S1 RBD (R319-F541), C-terminal 6-His (SARS-CoV-2, UniProt P0DTC2 319-541). The experiment in a line: flow cytometry, blocking of binding to hACE-2 cells.
As for B1, the percent blocking stood at 94.1%.

Turning to B2, the percent blocking was found to be 94.5%.

With B3, the percent blocking worked out at 94.6%.

In the case of B4, the percent blocking is 93.7%.

For B5, the percent blocking turned out to be 98.7%.

Turning to B6, the percent blocking is 85.2%.

For the molecule B7, the percent blocking came out at 94.1%.

In a further assay the target is T1, recombinant SARS-CoV-2 spike S1 RBD …. The description is as above. This is another data set of the same source.
Consider B1, for which the percent blocking is 94.1%.

Turning to B2, the percent blocking worked out at 94.5%.

Take B3: the percent blocking is 94.6%.

As to B4, the percent blocking is 93.7%.

As to B5, the percent blocking worked out at 98.7%.

Regarding B6, the percent blocking worked out at 85.2%.

As for B7, the percent blocking came to 94.1%.

For another assay, the target named is BR P.1 variant RBD (R319-F541 with K417T, E484K, N501Y), C-terminal 6-His (SARS-CoV-2, UniProt P0DTC2 319-541). The description is as above.
As to B1, the percent blocking stood at 22%.

The molecule B2 returned a percent blocking of 77.2%.

B3 showed a percent blocking of 95%.

Molecule B4 displayed a percent blocking of 0%.

B5 yielded a percent blocking of 0%.

B6 gave a percent blocking of 0.4%.

In turn, B7 came in with a percent blocking of 14.9%.

The target of another assay is IN v2 variant RBD (R319-F541 with L452R, T478K) (SARS-CoV-2, UniProt P0DTC2 319-541). The assay is described as above.
Turning to B1, the percent blocking came out at 81.4%.

As for B2, the percent blocking was 0.8%.

Molecule B3 showed a percent blocking of 96.5%.

For the molecule B4, the percent blocking is 18.4%.

With B5, the percent blocking was 1.7%.

Molecule B6 yielded a percent blocking of 37.4%.

In turn, B7 gave a percent blocking of 0.9%.

For the next assay, the target named is rSARS2 RBD aa319-541, N439K, C-His (SARS-CoV-2, UniProt P0DTC2 319-541). The assay is described as above.
As to B1, the percent blocking was 34.6%.

On to B2, for which the percent blocking turned out to be 53%.

In turn, B3 returned a percent blocking of 96.2%.

The molecule B4 had a percent blocking of 0.9%.

The molecule B5 came in with a percent blocking of 18.1%.

Molecule B6 returned a percent blocking of 43%.

For the molecule B7, the percent blocking was 25.2%.

The next assay has as its target rSARS2-B.1.1.7 S aa16-1211 2x aa mut., C-His (SARS-CoV-2, UniProt P0DTC2 16-1211). The assay is described as above.
With B1, the percent blocking was 71.1%.

Regarding B2, the percent blocking came to 81.4%.

B3 came in with a percent blocking of 94.4%.

Turning to B4, the percent blocking turned out to be 82%.

For the molecule B5, the percent blocking came to 76.3%.

As to B6, the percent blocking is 17.8%.

Consider B7, for which the percent blocking came to 12%.

For the next assay, the target named is rSARS2-B.1.1.7 S aa16-1211 4x aa mut., C-His (SARS-CoV-2, UniProt P0DTC2 16-1211). The assay is described as above.
B1 came in with a percent blocking of 75.9%.

Regarding B2, the percent blocking came out at 74.4%.

As to B3, the percent blocking turned out to be 81.5%.

As to B4, the percent blocking came out at 23.5%.

In the case of B5, the percent blocking came to 72.4%.

Turning to B7, the percent blocking is 35.8%.

In a further assay the target is rSARS2-B.1.617.2 S aa16-1211 10+4x aa mut., C-His (SARS-CoV-2, UniProt P0DTC2 16-1211). The description is as above.
Molecule B1 came in with a percent blocking of 89.5%.

B2 registered a percent blocking of 0%.

Take B3: the percent blocking was 89.3%.

B4 returned a percent blocking of 93.8%.

B5 showed a percent blocking of 0%.

B6 showed a percent blocking of 73.5%.

As for B7, the percent blocking was found to be 0%.
